For one substance, Average EC50 and Average fold induction results are on record in US20230220008A1.

The test has as its target CD137 on Jurkat reporter cells (Promega) (UniProt Q07011). Put plainly: cell-based or functional assay.

Sequence of CD137 on Jurkat reporter cells (Promega) (Q07011 24-255 limits assumed): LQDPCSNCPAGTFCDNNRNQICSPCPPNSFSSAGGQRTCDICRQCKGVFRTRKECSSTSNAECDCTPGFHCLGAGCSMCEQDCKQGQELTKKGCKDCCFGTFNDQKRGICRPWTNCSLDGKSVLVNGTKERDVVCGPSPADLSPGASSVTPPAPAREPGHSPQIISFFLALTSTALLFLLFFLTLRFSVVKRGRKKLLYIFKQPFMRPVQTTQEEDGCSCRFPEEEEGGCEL

“CD137 ligand (from UniProt P41273 71-254)” displayed an Average EC50 of 14.2 nM and an Average fold induction of 4 fold.
